Earlier results on two substances are cited in PMC7070747.

Data set [1] deals with Fibronectin extra domain B EDB (Homo sapiens) (UniProt P02751).
Data set [2] concerns the target integrin αvβ5 (Homo sapiens) (UniProt P06756).
In data set [3] the target is integrin αvβ3 (Homo sapiens) (UniProt P06756).

UniProt P02751, sequence (P02751 1266-1356): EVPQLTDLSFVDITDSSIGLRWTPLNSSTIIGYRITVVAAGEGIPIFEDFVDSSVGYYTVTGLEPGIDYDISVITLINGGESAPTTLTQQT

Take ZD2: the Kd in data set [1] is 11 µM.

Turning to iRGD, the values for the Kd in data set [2] and in data set [3] were 62 nM and 18 nM, respectively.
